Paper PMC9440474 (2022)
Bridge positions count the residues as written; N and C are the ends. Ends that are not written are not given here. APBA‑3 = not defined here

What was measured:
S1_SS = target: T1, S1_SS (disulfide 2-9 (inferred)); assay: fluorescence polarization competition
T1 chain: ACLIPSWGCGGG

S1_APBA-3* = target: T2, S1_APBA-3* (linker (positions not given here) via APBA‑3; reading uncertain); assay: fluorescence polarization
T2 chain: ACLIPSWGCGGG-{Dap(FAM)}

S1_SS* = target: T3, S1_SS* (disulfide 2-9 (inferred)); assay: fluorescence polarization
T3 chain: ACLIPSWGCGGG-{Dap(FAM)}

B1: Sortase A (protein)
chain: MKKWTNRLMTIAGVVLILVAAYLFAKPHIDNYLHDKDKDEKIEQYDKNVKEQASKDKKQQAKPQIPKDKSKVAGYIEIPDADIKEPVYPGPATPEQLNRGVSFAEENESLDDQNISIAGHTFIDRPNYQFTNLKAAKKGSMVYFKVGNETRKYKMTSIRDVKPTDVGVLDEQKGKDKQLTLITCDDYNEKTGVWEKRKIFVATEVK
S1_SS
  IC50: 26 µM
S1_APBA-3*
  Kd: 64 µM
S1_SS*
  Kd: 5.2 µM
